Results published in article PMC10193008, “Discovery of an inhibitor of DNA-driven inflammation that preferentially targets the AIM2 inflammasome”.

Molecular target: T1, AIM2-GST (rhAIM2) (human, UniProt O14862 1-343)
T1 sequence: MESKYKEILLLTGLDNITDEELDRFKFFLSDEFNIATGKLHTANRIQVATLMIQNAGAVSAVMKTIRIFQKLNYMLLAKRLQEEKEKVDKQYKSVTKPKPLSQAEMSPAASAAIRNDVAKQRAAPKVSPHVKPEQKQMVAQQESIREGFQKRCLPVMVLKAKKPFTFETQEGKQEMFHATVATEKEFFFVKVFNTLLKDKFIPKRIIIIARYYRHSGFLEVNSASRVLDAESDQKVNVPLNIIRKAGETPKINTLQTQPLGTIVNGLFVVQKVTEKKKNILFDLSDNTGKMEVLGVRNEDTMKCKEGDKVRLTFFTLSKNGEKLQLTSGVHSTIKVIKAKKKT
Test: EMSA; no inhibitor
Details: protein: commercial; tags: GST; label: none (SYBR Safe stain after electrophoresis); blunt

B1: VACV72 dsDNA (dsDNA)
DNA 1: ATCCATCAGAAAGAGGTTTAATATTTTTGTGAGACCATCGAAGAGAGAAAGAGATAAAACTTTTTTACGACT
DNA 2: AGTCGTAAAAAAGTTTTATCTCTTTCTCTCTTCGATGGTCTCACAAAAATATTAAACCTCTTTCTGATGGAT
  binding result: binds
